This passage reports Kd results from PMC7591920, “A protein tertiary structure mimetic modulator of the Hippo signalling pathway” (Nature Communications, 2020).

Assay [1] concerns the target GST-hTEAD1(209–426) (human) (UniProt P28347). The experiment in a line: not stated; values of Supplementary Table 1; the method is not given.
In assay [2] the target is mouse TEAD4(210–427), as purified (SPR) (mouse) (UniProt Q62296). Described as above.
Chain of mouse TEAD4(210–427), as purified (SPR) (mouse) (Q62296 210-427): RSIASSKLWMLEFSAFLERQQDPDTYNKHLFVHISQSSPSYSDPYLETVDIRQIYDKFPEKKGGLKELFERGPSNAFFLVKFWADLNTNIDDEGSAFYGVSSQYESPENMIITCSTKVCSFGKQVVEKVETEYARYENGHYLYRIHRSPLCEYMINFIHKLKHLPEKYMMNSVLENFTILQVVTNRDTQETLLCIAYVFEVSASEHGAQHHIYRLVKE

As for “VGL4 two-helix motif peptide with K250 varied to alanine (from UniProt Q80V24 203-256)”, the Kd in assay [1] was 17 µM; in assay [2], 12 µM.
